From IntAct's records for PubMed 25312756

B1: Ras-related protein Rab-27A (Homo sapiens), P51159 (parent)
chain: MSDGDYDYLIKFLALGDSGVGKTSVLYQYTDGKFNSKFITTVGIDFREKRVVYRASGPDGATGRGQRIHLQLWDTAGQERFRSLTTAFFRDAMGFLLLFDLTNEQSFLNVRNWISQLQMHAYCENPDIVLCGNKSDLEDQRVVKEEEAIALAEKYGIPYFETSAANGTNISQAIEMLLDLIMKRMERCVDKSWIPEGVVRSNGHASTDQLSEEKEKGACGC
partner: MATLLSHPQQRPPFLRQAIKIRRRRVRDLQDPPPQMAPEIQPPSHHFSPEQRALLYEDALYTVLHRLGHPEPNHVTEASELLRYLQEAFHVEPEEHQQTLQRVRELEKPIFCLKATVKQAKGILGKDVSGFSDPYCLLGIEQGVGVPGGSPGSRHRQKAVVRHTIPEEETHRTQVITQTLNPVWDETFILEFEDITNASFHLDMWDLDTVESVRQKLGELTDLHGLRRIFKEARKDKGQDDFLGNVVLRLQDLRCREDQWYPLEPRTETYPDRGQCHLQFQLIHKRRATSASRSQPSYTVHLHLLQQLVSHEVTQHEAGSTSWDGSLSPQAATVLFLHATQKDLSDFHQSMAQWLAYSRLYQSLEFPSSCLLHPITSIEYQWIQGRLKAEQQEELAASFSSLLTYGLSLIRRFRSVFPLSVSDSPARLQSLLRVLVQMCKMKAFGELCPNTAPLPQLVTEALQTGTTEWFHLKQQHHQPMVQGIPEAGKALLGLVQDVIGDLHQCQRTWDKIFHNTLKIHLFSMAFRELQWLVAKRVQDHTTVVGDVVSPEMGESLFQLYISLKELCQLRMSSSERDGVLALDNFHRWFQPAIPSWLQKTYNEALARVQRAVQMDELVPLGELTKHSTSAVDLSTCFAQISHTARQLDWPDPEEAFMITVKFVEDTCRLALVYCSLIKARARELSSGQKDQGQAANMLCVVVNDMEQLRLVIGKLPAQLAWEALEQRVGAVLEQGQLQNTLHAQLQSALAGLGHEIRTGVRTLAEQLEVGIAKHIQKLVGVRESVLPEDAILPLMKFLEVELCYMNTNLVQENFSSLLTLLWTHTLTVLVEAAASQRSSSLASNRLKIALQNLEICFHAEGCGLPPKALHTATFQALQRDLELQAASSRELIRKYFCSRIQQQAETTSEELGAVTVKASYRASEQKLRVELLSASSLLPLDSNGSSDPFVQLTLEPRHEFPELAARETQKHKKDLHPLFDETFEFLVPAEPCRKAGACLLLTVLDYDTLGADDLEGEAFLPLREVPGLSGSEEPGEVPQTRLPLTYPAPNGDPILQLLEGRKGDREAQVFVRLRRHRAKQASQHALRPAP
B2: Ras-related protein Rab-27A (Homo sapiens), P51159 (parent)
chain: B1 chain
partner: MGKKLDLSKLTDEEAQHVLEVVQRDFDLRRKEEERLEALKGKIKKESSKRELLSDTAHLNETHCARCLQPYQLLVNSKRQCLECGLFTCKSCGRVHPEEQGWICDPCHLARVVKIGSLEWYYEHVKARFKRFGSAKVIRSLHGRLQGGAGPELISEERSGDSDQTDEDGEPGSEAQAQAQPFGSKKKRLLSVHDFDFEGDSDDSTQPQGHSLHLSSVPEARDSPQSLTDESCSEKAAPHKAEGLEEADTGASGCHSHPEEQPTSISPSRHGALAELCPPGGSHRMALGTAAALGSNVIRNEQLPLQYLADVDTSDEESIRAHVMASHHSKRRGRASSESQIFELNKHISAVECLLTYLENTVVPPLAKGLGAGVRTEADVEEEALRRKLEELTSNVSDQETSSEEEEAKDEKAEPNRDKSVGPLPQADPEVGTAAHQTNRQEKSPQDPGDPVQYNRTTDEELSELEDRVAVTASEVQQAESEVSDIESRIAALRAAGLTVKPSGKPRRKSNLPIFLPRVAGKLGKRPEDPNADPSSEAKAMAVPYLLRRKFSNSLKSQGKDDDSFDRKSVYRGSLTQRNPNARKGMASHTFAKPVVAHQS

Variants of: B1
Conditions: with un13d_human UNC13D

| Variant | effect of a mutation on the interaction |
| --- | --- |
| MSDGDYDYLIKFLALGDSGVGKTSVLYQYTDGKFNSKFITTVGIDFREKRVVYRASGPDGATGRGQRIHLQLWDTAGQERFRSLTTAFFRDAMGFLLLFDLTNEQSFLNVRNWISQLQMHAYCENPDIVLCGNKSDLEDQRVVKEEEAIALAEKYGIPCFETSAANGTNISQAIEMLLDLIMKRMERCVDKSWIPEGVVRSNGHASTDQLSEEKEKGACGC [Y159C] | disrupting interaction strength |
| MSDGDYDYLIKFLALGDSGVGKTSVLYQYTDGKFNSKFITTVGIDFREKRVVYRASGPDGATGRGQRIHLQLWDTAGQERFRSLTTAFFRDAMGFLLLFDLTNEQSFLNVRNWISQLQMHAYCENPDIVLCGNKSDLEDQRVVKEEEAIALAEKYGIPYFETRAANGTNISQAIEMLLDLIMKRMERCVDKSWIPEGVVRSNGHASTDQLSEEKEKGACGC [S163R] | decreasing interaction strength |
| MSDGDYDYLIKFLALGDSGVGKTSVLYQYTDGKFNSKFITTVGIDFREKRVVYRASGPDGATGRGQRIHLQLWDTVGQERFRSLTTAFFRDAMGFLLLFDLTNEQSFLNVRNWISQLQMHAYCENPDIVLCGNKSDLEDQRVVKEEEAIALAEKYGIPYFETSAANGTNISQAIEMLLDLIMKRMERCVDKSWIPEGVVRSNGHASTDQLSEEKEKGACGC [A76V] | decreasing interaction strength |

Variants of: B2
Conditions: with melph_human MLPH

| Variant | effect of a mutation on the interaction |
| --- | --- |
| MSDGDYDYLIKFLALGDSGVGKTSVLYQYTDGKFNSKFITTVGIDFREKRVVYRASGPDGATGRGQRIHLQLWDTAGQERFRSLTTAFFRDAMGFLLLFDLTNEQSFLNVRNWISQLQMHAYCENPDIVLCGNKSDLEDQRVVKEEEAIALAEKYGIPCFETSAANGTNISQAIEMLLDLIMKRMERCVDKSWIPEGVVRSNGHASTDQLSEEKEKGACGC [Y159C] | with no effect |
| MSDGDYDYLIKFLALGDSGVGKTSVLYQYTDGKFNSKFITTVGIDFREKRVVYRASGPDGATGRGQRIHLQLWDTVGQERFRSLTTAFFRDAMGFLLLFDLTNEQSFLNVRNWISQLQMHAYCENPDIVLCGNKSDLEDQRVVKEEEAIALAEKYGIPYFETSAANGTNISQAIEMLLDLIMKRMERCVDKSWIPEGVVRSNGHASTDQLSEEKEKGACGC [A76V] | with no effect |
| MSDGDYDYLIKFLALGDSGVGKTSVLYQYTDGKFNSKFITTVGIDFREKRVVYRASGPDGATGRGQRIHLQLWDTAGQERFRSLTTAFFRDAMGFLLLFDLTNEQSFLNVRNWISQLQMHAYCENPDIVLCGNKSDLEDQRVVKEEEAIALAEKYGIPYFETRAANGTNISQAIEMLLDLIMKRMERCVDKSWIPEGVVRSNGHASTDQLSEEKEKGACGC [S163R] | decreasing interaction strength |
